The target in one assay is HLA-B*40:01. Kind of assay: IEDB peptide-MHC binding, purified MHC/direct/fluorescence; filed as Kd, often an IC50 or EC50 that approximates it; ≥ and ≤ were set here for values at or beyond the usual limits of such assays.
For a further assay, the target named is HLA-A*11:01. Described as above.
The target in the next assay is HLA-B*07:02. The description is as above.
The next assay concerns the target HLA-A*02:01. The assay is described as above.
In assay [1] the target is HLA-A*24:03. Described as above.
In the next assay the target is HLA-A*03:01. Described as above.
A further assay has as its target HLA-B*15:01. The description is as above.
In a further assay the target is HLA-A*69:01. The description is as above.
A further assay concerns the target HLA-B*58:01. The description is as above.
A further assay deals with HLA-B*27:05. The assay is described as above.
The target in assay [2] is HLA-A*26:01. Described as above.
The target in a further assay is HLA-A*30:01. Described as above.
The target of another assay is HLA-A*01:01. The assay is described as above.
Another assay deals with HLA-B*08:01. The assay is described as above.
The target in the next assay is HLA-A*31:01. The assay is described as above.
A further assay deals with HLA-B*44:02. Described as above.
For the next assay, the target named is HLA-C*03:03. The description is as above.
For assay [3], the target named is HLA-B*35:01. The description is as above. The conditions noted are these: source organism: Escherichia coli O157:H7.
Assay [4] has as its target HLA-A*24:03. Kind of assay: IEDB peptide-MHC binding, purified MHC/competitive/fluorescence; filed as Kd, often an IC50 or EC50 that approximates it; ≥ and ≤ were set here for values at or beyond the usual limits of such assays. The conditions noted are these: source organism: Bacillus anthracis str. A2012.
A further assay deals with HLA-B*48:01. Kind of assay: IEDB peptide-MHC binding, purified MHC/direct/fluorescence; filed as Kd, often an IC50 or EC50 that approximates it; ≥ and ≤ were set here for values at or beyond the usual limits of such assays. The conditions noted are these: source organism: West Nile virus.
The next assay concerns the target HLA-B*18:01. Described as above. To be noted: source organism: West Nile virus.
In the next assay the target is HLA-B*57:01. The description is as above. The conditions noted are these: source organism: West Nile virus.
The target of another assay is HLA-B*46:01. The description is as above. To be noted: source organism: West Nile virus.
A further assay has as its target HLA-B*39:01. Kind of assay: IEDB peptide-MHC binding, purified MHC/competitive/fluorescence; filed as Kd, often an IC50 or EC50 that approximates it; ≥ and ≤ were set here for values at or beyond the usual limits of such assays. The conditions noted are these: source organism: West Nile virus.
Assay [5] has as its target HLA-A*26:01. The assay is described as above. To be noted: source organism: West Nile virus.
The target in another assay is HLA-B*54:01. Kind of assay: IEDB peptide-MHC binding, purified MHC/competitive/radioactivity; filed as Kd, often an IC50 or EC50 that approximates it; ≥ and ≤ were set here for values at or beyond the usual limits of such assays. To be noted: source organism: SARS coronavirus Tor2.
For another assay, the target named is HLA-B*51:01. Described as above. To be noted: source organism: SARS coronavirus Tor2.
Assay [6] deals with HLA-B*35:01. Described as above. The conditions noted are these: source organism: SARS coronavirus Tor2.
The target of a further assay is HLA-B*53:01. The assay is described as above. The conditions noted are these: source organism: SARS coronavirus Tor2.
The next assay addresses HLA-C*07:02. Kind of assay: IEDB peptide-MHC binding, purified MHC/direct/fluorescence; filed as Kd, often an IC50 or EC50 that approximates it; ≥ and ≤ were set here for values at or beyond the usual limits of such assays. The conditions noted are these: source organism: SARS-CoV1.
In another assay the target is HLA-B*83:01. Kind of assay: IEDB peptide-MHC binding, purified MHC/competitive/fluorescence; filed as Kd, often an IC50 or EC50 that approximates it; ≥ and ≤ were set here for values at or beyond the usual limits of such assays. To be noted: source organism: Giardia lamblia ATCC 50803.
A further assay concerns the target HLA-B*15:42. The assay is described as above. The conditions noted are these: source organism: Giardia lamblia ATCC 50803.
In a further assay the target is HLA-B*45:06. The description is as above. The conditions noted are these: source organism: Giardia lamblia ATCC 50803.
Setting [7] is: source organism: Pseudomonas putida.
Setting [8] is: source organism: Pseudomonas aeruginosa.
The mark [9] stands for this setting: source organism: Giardia lamblia ATCC 50803.
The mark [10] stands for this setting: source organism: Brucella abortus 2308.
Setting [11] is: source organism: Escherichia coli O157:H7.
[12] abbreviates: source organism: West Nile virus.
The mark [13] stands for this setting: source organism: Yellow fever virus.

Bounds are passed on as bounds.

The source of these data is the Immune Epitope Database (IEDB).

NWDWGVFFK: the dissociation constant Kd was at least 20 µM with HLA-B*40:01 (setting [7]); 67.3 nM in the assay with HLA-A*11:01 (setting [8]); at least 20 µM in the assay with HLA-B*07:02 (setting [7]); at least 20 µM with HLA-A*02:01 (setting [7]); at least 20 µM with HLA-A*24:03 [1] (setting [7]); at least 20 µM with HLA-A*03:01 (setting [7]). In addition, the Kd with HLA-B*15:01 (setting [7]) is at least 20 µM; in the assay with HLA-A*69:01 (setting [7]), at least 20 µM; with HLA-B*58:01 (setting [7]) it was at least 20 µM; with HLA-B*27:05 (setting [7]) it was at least 20 µM; with HLA-A*26:01 [2] (setting [7]) it was at least 20000 nM; with HLA-A*30:01 (setting [8]) it was 2100 nM. Further, the Kd in the assay with HLA-A*01:01 (setting [7]) and with HLA-B*08:01 (setting [7]) was at least 20 µM throughout.
As to TTIEDILPK, the dissociation constant (Kd) was at least 20 µM with HLA-B*40:01 (setting [9]); 9.2 nM with HLA-A*11:01 (setting [9]); at least 20 µM in the assay with HLA-B*07:02 (setting [9]); at least 20 µM with HLA-A*02:01 (setting [9]); at least 20 µM with HLA-A*24:03 [1] (setting [9]); 2.84 µM with HLA-A*03:01 (setting [9]). For the same sequence, the Kd in the assay with HLA-B*15:01 (setting [9]) is at least 20 µM; with HLA-A*69:01 (setting [9]) it was at least 20 µM; in the assay with HLA-B*58:01 (setting [9]) it was at least 20 µM; with HLA-B*27:05 (setting [9]), at least 20 µM; with HLA-A*26:01 [2] (setting [9]), 478 nM; with HLA-A*30:01 (setting [9]), 471 nM. Further, the Kd with HLA-A*01:01 (setting [9]) is at least 20 µM; with HLA-B*08:01 (setting [9]) it was at least 20 µM; with HLA-A*31:01 (setting [9]), 2.09 µM; with HLA-B*44:02 (setting [9]), at least 20 µM.
FAKPAGTPM had a Kd in the assay with HLA-C*03:03 (source organism: Burkholderia cenocepacia HI2424) of at most 1 nM.
As for KQLEYSWVL, the results for the dissociation constant Kd with HLA-A*02:01 (setting [10]), in the assay with HLA-A*69:01 (setting [10]) and with HLA-C*03:03 (source organism: Brucella canis ATCC 23365) were 0.0017 µM, 0.846 µM and at least 20000 nM, respectively.
Consider ITAGYNRYY, for which the Kd with HLA-B*40:01 (setting [11]) is at least 20 µM; with HLA-A*11:01 (setting [11]) it was 2560 nM; with HLA-B*07:02 (setting [11]) it was at least 20 µM; with HLA-A*02:01 (setting [11]), at least 20 µM; in the assay with HLA-A*24:03 [1] (setting [11]) it was at least 20 µM; with HLA-A*03:01 (setting [11]) it was 3.25 µM. Further, the dissociation constant (Kd) in the assay with HLA-B*15:01 (setting [11]) was 0.108 µM; with HLA-A*69:01 (setting [11]), at least 20 µM; in the assay with HLA-B*58:01 (setting [11]) it was 4.05 µM; with HLA-B*35:01 [3], 861 nM; with HLA-B*27:05 (setting [11]), at least 20 µM; with HLA-A*26:01 [2] (setting [11]), 205 nM. Moreover, the dissociation constant (Kd) was 2130 nM in the assay with HLA-A*30:01 (setting [11]); 0.535 µM with HLA-A*01:01 (setting [11]); at least 20 µM with HLA-B*08:01 (setting [11]); at least 20 µM in the assay with HLA-A*31:01 (setting [11]); at least 20 µM in the assay with HLA-B*44:02 (setting [11]).
With FFSPVIASL, the dissociation constant (Kd) with HLA-C*03:03 (source organism: Bacillus anthracis str. A2012) is at most 1 nM; with HLA-A*24:03 [4] it was at most 0.1 nM.
LYAVTTAVL: the dissociation constant Kd in the assay with HLA-B*40:01 (setting [12]), in the assay with HLA-B*48:01, with HLA-A*03:01 (setting [12]), in the assay with HLA-B*15:01 (setting [12]), with HLA-A*69:01 (setting [12]) and in the assay with HLA-B*58:01 (setting [12]) was at least 20 µM each time. Further, the equilibrium dissociation constant (Kd) with HLA-B*18:01 was at least 20 µM; with HLA-B*27:05 (setting [12]) it was at least 20 µM; with HLA-B*57:01, at least 20 µM; with HLA-B*46:01, at least 20 µM; with HLA-A*30:01 (source organism: West Nile virus strain PTRoxo) it was at least 20000 nM; with HLA-A*01:01 (setting [12]), at least 20 µM. Besides, the Kd in the assay with HLA-A*31:01 (setting [12]) is at least 20 µM; with HLA-B*44:02 (setting [12]), at least 20 µM; with HLA-B*39:01, 459 nM; with HLA-A*26:01 [5], at least 20 µM.
With FPREGVFVF, the dissociation constant (Kd) was 92.5 nM with HLA-B*54:01; 31.4 nM with HLA-B*51:01; 0.684 nM in the assay with HLA-B*35:01 [6]; 5.36 nM in the assay with HLA-B*53:01; 0.131 µM with HLA-B*07:02 (source organism: SARS-CoV1); 510 nM with HLA-C*07:02. Besides, the Kd stood at 2.14 µM in the assay with HLA-B*15:01 (source organism: SARS-CoV1) and 0.116 µM with HLA-B*08:01 (source organism: SARS-CoV1).
In the case of YLIIGILTL, the dissociation constant (Kd) in the assay with HLA-A*69:01 (setting [13]) was at least 20 µM; with HLA-C*03:03 (setting [13]), 18 nM.
As for AEFPVGSTA, the Kd with HLA-B*40:01 (setting [9]) was 0.41 µM; with HLA-A*11:01 (setting [9]), at least 20000 nM; with HLA-B*07:02 (setting [9]), at least 20 µM; with HLA-A*03:01 (setting [9]), at least 20 µM; with HLA-B*15:01 (setting [9]) it was at least 20 µM; with HLA-A*69:01 (setting [9]), at least 20 µM. The dissociation constant (Kd) was at least 20 µM in the assay with HLA-B*58:01 (setting [9]); at least 20 µM with HLA-B*27:05 (setting [9]); at least 20000 nM in the assay with HLA-A*26:01 [2] (setting [9]); at least 20 µM in the assay with HLA-A*01:01 (setting [9]); at least 20 µM in the assay with HLA-B*08:01 (setting [9]); at least 20 µM with HLA-A*31:01 (setting [9]). Also, the equilibrium dissociation constant (Kd) with HLA-B*44:02 (setting [9]) is at least 20 µM; with HLA-B*83:01, at least 5 µM; with HLA-B*15:42 it was at least 5 µM; with HLA-B*45:06, at least 5 µM.

By Kd is commonly meant the concentration at which binding is half-saturated.
